Patent US20170114118A1 (NATIONAL INSTITUTE FOR BIOTECHNOLOGY I, published 2017)

T1: TNF-like 1A (TL1A) (UniProt O95150 72-251)
T1 construct: Bought soluble TL1A; Biotinylated for yeast display, unlabelled in SPR and ELISA; also called TL1A cytokine
T1 sequence (looked up): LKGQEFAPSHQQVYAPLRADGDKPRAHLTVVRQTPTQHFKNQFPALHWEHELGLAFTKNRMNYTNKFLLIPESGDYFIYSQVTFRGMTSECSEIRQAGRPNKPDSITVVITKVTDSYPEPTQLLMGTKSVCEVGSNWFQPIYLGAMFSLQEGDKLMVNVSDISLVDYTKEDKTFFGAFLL


Each binder was assayed against T1, TNF-like 1A (TL1A) (assay: flow cytometry of yeast displaying DR3 as Aga2 fusion, incubated with 0.2 uM biotinylated TL1A, detected with streptavidin-APC).
Method: FIGS. 3A-B. Screening for improved DR3 mutants using yeast surface display (YSD). […] Expression and TL1A binding are detected by fluorescent antibodies and streptavidin, respectively. (B) Flow cytometry histogram analysis of cell population displaying WT DR3, DR3 mutant library after two rounds (R2) and three rounds of enrichment (R3) for binding to TL1A. Cell population that lacks surface display is shown in black. Analysis of cells was performed following incubation with 0.2 μM of TL1A.
Briefly, EBY100 cells transformed with plasmid pCTCON containing the desired clone were grown in SDCAA media (20 g […], 6.7 g yeast nitrogen base, 5 g casamino acids, 5.4 g Na2HPO4 and 8.56 g NaH2PO4*H2O) at 30° C. to logarithmic phase. Then, 2*10⁶ of cells were washed, resuspended in SGCAA induction media (similar to SDCAA but containing galactose instead of […]) and grown at 30° C. with shaking for an additional 18 hours. Induced cells (1*10⁶) were collected by centrifugation, washed with PBSF (PBS+1 g/L BSA) and incubated for 1 hour at […] with 0.2 μM TL1A (R&D Systems) that was biotinylated using biotin labeling kit (Pierce) according to manufacturer's procedure. […] The labeled cells were washed, resuspended with PBSF and analyzed by flow cytometry (FACS Calibur, BD).

binding result | Binder
binds | DR3 (receptor, human, UniProt Q93038 25-199, looked up, extracellular domain, wild type, Aga2 fusion on EBY100 yeast) receptor extracellular domain displayed on the yeast surface as an Aga2 fusion: QGGTRSPRCDCAGDFHKKIGLFCCRGCPAGHYLKAPCTEPCGNSTCLVCPQDTFLAWENHHNSECARCQACDEQASQVALENCSAVADTRCGCKPGWFVECQVSQCVSSSPFYCQPCLDCGALHRHTRLLCSRRDTDCGTCLPGFYEHGDGCVSCPTSTLGSCPERCAAVCGWRQ

What follows are binders tested against T1, TNF-like 1A (TL1A) (assay: SPR (ProteOn XPR36), DR3-Fc immobilized, TL1A as analyte).
Method: The affinity of TL1A binding to DR3 variants was determined by surface plasmon resonance (SPR) measurements on a ProteOn XPR36 (Bio-Rad) instrument. All samples were in PBS containing 2 mM of DTT. A GLC Chip was air-initialized and activated with EDC/S-NHS. 5 μg from each of the DR3 variants were diluted in acetate buffer, pH 5.5, and immobilized onto the chip as a reference and BSA was also loaded onto the chip. After blocking available unbound sites on the chip with ethanolamine, the chip was washed with HBST buffer and rotated. TL1A was run at 30 μl/min for 300 sec at various concentrations (100, 50, 25, 12.5 and 6.25 nM), followed by a 10-min dissociation step. Binding parameters were determined with the Langmuir single binding site model, using the Bio-Rad's proteOn Manager software V2.1.2.05.
Next, the TL1A binding affinity to the different DR3 variants was characterized using surface plasmon resonance (Table 3).

Kd | koff | kon | Fold increase in Affinity (against WT) | Binder
44.9 nM | 0.00072 s⁻¹ | 16000 M⁻¹ s⁻¹ | – | WT DR3 extracellular domain fused with human IgG1 Fc (DR3-Fc WT) (Fc fusion, also called DR3 WT; soluble DR3 WT) GGTRSPRCDCAGDFHKKIGLFCCRGCPAGHYLKAPCTEPCGNSTCLVCPQDTFLAWENHHNSECARCQACDEQASQVALENCSAVADTRCGCKPGWFVECQVSQCVSSSPFYCQPCLDCGALHRHTRLLCSRRDTDCGTCLPGFYEHGDGCVSCPTSTLGSCPERCAAVCGWRQIEGRMDRSVECPPCPAPPVAGPSVFLFPPKPKDTLMISRTPEVTCVVVDVSHEDPEVKFNWYVDGVEVHNAKTKPREEQYNSTYRVVSVLTVLHQDWLNGKEYKCKVSNKGLPSSIEKTISKAKGQPREPQVYTLPPSREEMTKNQVSLTCLVKGFYPSDIAVEWESNGQPENNYKTTPPVLDSDGSFFLYSKLTVDKSRWQQGNVFSCSVMHEGLHNHYTQKSLSLSPGK
6.79 nM | 0.000237 s⁻¹ | 34900 M⁻¹ s⁻¹ | 6.6 fold | DR3 variant having SEQ ID NO: 3, fused with human IgG1 Fc (Fc fusion, Linker and Fc as for m2) GGTRSPRCDCAGDFHKKTGLFCCRGCPAGHYLKAPCTEPCGNSTCLPCPQGTFLAWENHHESECARCQACDEQASQVALENCSAVADTRCGCEPGWFVECQVSPCVSSSPFYCQPCLDCGALHRHTRLPCSRRDTDCGTCLPGFYEHGDGCVSCPTSTLGSCPERCAAVCGWRQIEGRMDRSVECPPCPAPPVAGPSVFLFPPKPKDTLMISRTPEVTCVVVDVSHEDPEVKFNWYVDGVEVHNAKTKPREEQYNSTYRVVSVLTVLHQDWLNGKEYKCKVSNKGLPSSIEKTISKAKGQPREPQVYTLPPSREEMTKNQVSLTCLVKGFYPSDIAVEWESNGQPENNYKTTPPVLDSDGSFFLYSKLTVDKSRWQQGNVFSCSVMHEGLHNHYTQKSLSLSPGK
26.9 nM | 0.000643 s⁻¹ | 23900 M⁻¹ s⁻¹ | 1.7 fold | DR3 variant having SEQ ID NO: 5, fused with human IgG1 Fc (Fc fusion, Linker and Fc as for m2) GGTRSPRCDCAGDFHKKIGLFCCRGCPAGHYLKAPCTKPCGNSTCLPCPQDTFLARENHHNSECTRCQACDEQASQVALENCSAVADTRCGCAPGWFVECSVSQCVSSSPFYCQPCLDCGALHRHTRLPCSRRDTDCGTCLPGFYEHGDGCVSCPTSTLGSCPERCAAVCGWRQIEGRMDRSVECPPCPAPPVAGPSVFLFPPKPKDTLMISRTPEVTCVVVDVSHEDPEVKFNWYVDGVEVHNAKTKPREEQYNSTYRVVSVLTVLHQDWLNGKEYKCKVSNKGLPSSIEKTISKAKGQPREPQVYTLPPSREEMTKNQVSLTCLVKGFYPSDIAVEWESNGQPENNYKTTPPVLDSDGSFFLYSKLTVDKSRWQQGNVFSCSVMHEGLHNHYTQKSLSLSPGK
9.83 nM | 0.000357 s⁻¹ | 36300 M⁻¹ s⁻¹ | 4.6 fold | DR3 variant having SEQ ID NO: 4, fused with human IgG1 Fc (Fc fusion, Linker and Fc as for m2) GGTRSPRCDCAGDFHKKYGLFCCRGCPAGHYLKAPCTEPCGNSTCLVCPQGTFLAWENHHNSECARCQACDEQASQVALENCSAVADTRCGCEPGWFVECQVSQCVSSSPFYCQPCLDCGALHRHTRLPCSRRDTDCGTCLPGFYEHGDGCVSCPTSTLGSCPERCAAVCGWRQIEGRMDRSVECPPCPAPPVAGPSVFLFPPKPKDTLMISRTPEVTCVVVDVSHEDPEVKFNWYVDGVEVHNAKTKPREEQYNSTYRVVSVLTVLHQDWLNGKEYKCKVSNKGLPSSIEKTISKAKGQPREPQVYTLPPSREEMTKNQVSLTCLVKGFYPSDIAVEWESNGQPENNYKTTPPVLDSDGSFFLYSKLTVDKSRWQQGNVFSCSVMHEGLHNHYTQKSLSLSPGK
8.26 nM | 0.000351 s⁻¹ | 42600 M⁻¹ s⁻¹ | 5 fold | DR3 variant having SEQ ID NO: 2, fused with human IgG1 Fc (Fc fusion, Linker and Fc as for m2) GGTRSPRCDCAGDFHKKYGLFCCRGCPAGHYLKAPCTEPCGNSTCLPCPQGTFLAWENHHNSECTRCQACDEQASQVALENCSAVADTRCGCAPGWFVECSVSQCVSSSPFYCQPCLDCGALHRHTRLPCSRRDTDCGTCLPGFYEHGDGCVSCPTSTLGSCPERCAAVCGWRQIEGRMDRSVECPPCPAPPVAGPSVFLFPPKPKDTLMISRTPEVTCVVVDVSHEDPEVKFNWYVDGVEVHNAKTKPREEQYNSTYRVVSVLTVLHQDWLNGKEYKCKVSNKGLPSSIEKTISKAKGQPREPQVYTLPPSREEMTKNQVSLTCLVKGFYPSDIAVEWESNGQPENNYKTTPPVLDSDGSFFLYSKLTVDKSRWQQGNVFSCSVMHEGLHNHYTQKSLSLSPGK

The binders below were run against T1, TNF-like 1A (TL1A) (assay: ELISA screen, HEK293 medium with secreted DR3-Fc on captured TL1A).
Method: The plates were then washed with PBST and blocked by incubation with 150 μl of PBS supplemented with 3% skim milk for 1 hour. Following blocking, the plates were washed and incubated with 100 μl of media of HEK293T transfected with WT or DR3 mutants harvested 48 or 72 hours post transfection, ELISA plates were shaken for additional hour. DR3-Fc (R&D Systems) was added at a concentration of 2 μg/ml as a positive control, and PBS supplemented with 1% BSA served as a negative control. Plates were then washed with PBST, incubated with 100 μl of 0.05 μg/ml of biotinylated goat polyclonal α-DR3 antibodies (R&D Systems), followed by incubation with secondary peroxidase-conjugated streptavidin (Jackson, 1:10000 dilution). Finally, 100 μl of horseradish peroxidase (HRP) chromogenic 3,3′,5,5′-tetramethylbenzidine (TMB) substrate solution (Dako) were added. The reaction was stopped by the addition of 1 M sulfuric acid and recorded at 450 nm using a Tecan Infinite M200 plate reader.
To identify single DR3 mutant candidates with enhanced binding affinity for TL1A, the FACS-enriched library was sub-cloned into a mammalian vector containing leader peptide and fused with human IgG1 Fc. […] Thus, the mammalian based expression of soluble DR3 receptor offers the advantage of maintaining the native protein posttranslational modifications including glycosylation. To obtain high level of DR3 expression in mammalian cells, the leader peptide sequence was optimized (FIG. 4), transfection and expression conditions in HEK293F cells (see Experimental Procedures for details). To facilitate the screening of a relatively large number of DR3 mutants, cells were transfected in 24 plate format and the secreted DR3 was examined for TL1A interaction using ELISA. A fast and sensitive ELISA that is based on immobilizing TL1A on multi-well plates and detecting DR3 binding using specific antibodies was developed (FIG. 5).

binding result | Binder
binds | DR3 variant having SEQ ID NO: 6, fused with human IgG1 Fc (Fc fusion, Tested as secreted Fc fusion in HEK293 medium (ELISA screen); Linker and Fc as for m2) GGTRSPRCDCAGDFQKKIGLFCCRGCPAGHYLKAPCTEPCGNSTCLPCPQDTFLARENHHNSECARCQACDEQASQVALENCSAVADTRCGCKPGWFVECQVSPCVSSSPFYCQPCLDCGALHRHTRLLCSRRDTDCGTCLPGFYEHGDGCVSCPTSTLGSCPERCAAVCGWRQIEGRMDRSVECPPCPAPPVAGPSVFLFPPKPKDTLMISRTPEVTCVVVDVSHEDPEVKFNWYVDGVEVHNAKTKPREEQYNSTYRVVSVLTVLHQDWLNGKEYKCKVSNKGLPSSIEKTISKAKGQPREPQVYTLPPSREEMTKNQVSLTCLVKGFYPSDIAVEWESNGQPENNYKTTPPVLDSDGSFFLYSKLTVDKSRWQQGNVFSCSVMHEGLHNHYTQKSLSLSPGK
binds | DR3 variant having SEQ ID NO: 9, fused with human IgG1 Fc (Fc fusion, Tested as secreted Fc fusion in HEK293 medium (ELISA screen); Linker and Fc as for m2) GGTRSPRCDCAGDFQKKIGLFCCRGCPAGHYLKAPCTEPCGNSTCLPCPQDTFLAWENHHESECARCQACDEQASQVALENCSAVADTRCGCEPGWFVECSVSPCVSSSPFYCQPCLDCGALHRHTRLPCSRRDTDCGTCLPGFYEHGDGCVSCPTSTLGSCPERCAAVCGWRQIEGRMDRSVECPPCPAPPVAGPSVFLFPPKPKDTLMISRTPEVTCVVVDVSHEDPEVKFNWYVDGVEVHNAKTKPREEQYNSTYRVVSVLTVLHQDWLNGKEYKCKVSNKGLPSSIEKTISKAKGQPREPQVYTLPPSREEMTKNQVSLTCLVKGFYPSDIAVEWESNGQPENNYKTTPPVLDSDGSFFLYSKLTVDKSRWQQGNVFSCSVMHEGLHNHYTQKSLSLSPGK
binds | DR3 variant having SEQ ID NO: 7, fused with human IgG1 Fc (Fc fusion, Tested as secreted Fc fusion in HEK293 medium (ELISA screen); Linker and Fc as for m2) GGTRSPRCDCAGDFHKKIGLFCCRGCPAGHYLKAPCTKPCGNSTCLPCPQDTFLAWENHHNSECTRCQACDEQASQVALENCSAVADTRCGCKPGWFVECSVSQCVSSSPFYCQPCLDCGALHRHTRLLCSRRDTDCGTCLPGFYEHGDGCVSCPTSTLGSCPERCAAVCGWRQIEGRMDRSVECPPCPAPPVAGPSVFLFPPKPKDTLMISRTPEVTCVVVDVSHEDPEVKFNWYVDGVEVHNAKTKPREEQYNSTYRVVSVLTVLHQDWLNGKEYKCKVSNKGLPSSIEKTISKAKGQPREPQVYTLPPSREEMTKNQVSLTCLVKGFYPSDIAVEWESNGQPENNYKTTPPVLDSDGSFFLYSKLTVDKSRWQQGNVFSCSVMHEGLHNHYTQKSLSLSPGK
